In general, stoichiometry N refers to a count of units in the complex or per binding partner.

The results in this text go back to publication PMC6716676, “Chemokine signaling links cell-cycle progression and cilia formation for left–right symmetry breaking” (PLoS Biology, 2019).

In data set [1] the target is zFoxj1a (zebrafish Foxj1a) (UniProt F1QDF8). In words: co-IP of Flag- and HA-tagged zFoxj1a. Conditions: reference: wild type (both tagged copies); sites T102.
Data set [2] deals with the molecule itself. In words: native gel or EMSA; whole-cell lysates of HEK293T cells with overexpressed Flag-tagged zFoxj1a or its mutants separated on SDS- and native PAGEs. For orientation: A gel shift assay detects complexes by their altered migration in electrophoresis.

For “zFoxj1a (zebrafish Foxj1a) (from UniProt F1QDF8) T102A (both tagged copies)”, the “binding against the reference” value in data set [1] is reported as “weaker”.

B1: Flag-zFoxj1a (zebrafish forkhead box j1a) (natural protein, UniProt F1QDF8 1-458, looked up)
chain: MLSMSSMDPWPEGSVGLEEEVVTAAAQAERLDTSTPLQCNTSLDSDNLDDSLTSLQWLQEFSILNASTGQHTSPSSHSHLMGSDAPSSPLAGDPASIGMPLTPGKPTAASFCRVPMFSALPSLVAHGHCPDEVDYKSNPHIKPPYSYATLICMAMQASKKTKITLSCIYKWITDNFCYFRHADPTWQNSIRHNLSLNKCFIKVPRQKDEPGKGGFWKIDPQYAERLLNGAYKKRRLPPVQINPALQHRLRMNAQATGVISRNLSVSPESQQLLKDFEEATSADQNWDPRLAEATMLSCWISGKGTNKRKQPYNHRTGKTPRRSSSPLLVMDEQEDLSSLRGNFDWDALLDSALNGELSLNEGSPLSPTPQDEELMIRGTHISPQEAPVENHVLMETQRSGDEDFDEETFLATAFLQSPWSEVDESNRSDFLGSSTVSIDQLFDLSFGGDLSSKIETLL
notes: forkhead box j1a (Foxj1a), zebrafish; In the self-association co-IP the second copy carried an HA tag instead of Flag (HA-zFoxj1a); also called Flag-tagged zFoxj1a; wild-type zFoxj1a; source: HEK293T, transfected, in lysate
As to B1, the “stoichiometry N” value in data set [2] was found to be 2.

B2: Flag-zFoxj1a-T102D (natural protein, zebrafish, UniProt F1QDF8 1-458, looked up)
chain: MLSMSSMDPWPEGSVGLEEEVVTAAAQAERLDTSTPLQCNTSLDSDNLDDSLTSLQWLQEFSILNASTGQHTSPSSHSHLMGSDAPSSPLAGDPASIGMPLDPGKPTAASFCRVPMFSALPSLVAHGHCPDEVDYKSNPHIKPPYSYATLICMAMQASKKTKITLSCIYKWITDNFCYFRHADPTWQNSIRHNLSLNKCFIKVPRQKDEPGKGGFWKIDPQYAERLLNGAYKKRRLPPVQINPALQHRLRMNAQATGVISRNLSVSPESQQLLKDFEEATSADQNWDPRLAEATMLSCWISGKGTNKRKQPYNHRTGKTPRRSSSPLLVMDEQEDLSSLRGNFDWDALLDSALNGELSLNEGSPLSPTPQDEELMIRGTHISPQEAPVENHVLMETQRSGDEDFDEETFLATAFLQSPWSEVDESNRSDFLGSSTVSIDQLFDLSFGGDLSSKIETLL
notes: forkhead box j1a (Foxj1a), zebrafish; In the self-association co-IP the second copy was differently tagged (HA); also called phospho-mimicking mutant of zFoxj1a; T102D mutant; source: HEK293T, transfected, in lysate
With B2, in data set [2], the “stoichiometry N” value was found to be 2.
